“And” between values parts separate entries of the source, which are not always exact repeats. Equal entries are not always repeated.
Test: BMP solubility screen: A320 turbidity of BMP-12 solutions
Format: physicochemical
Conditions: 50 mM Tris pH 8, 0.5 mg/mL BMP-12
Protocol: BMP Solubility Screen—A Tecan liquid-handling robot was used to mix a master plate of reagents, 800 μL×1.25 concentration (for each solution; see Tables 2 and 3), each in 50 mM Tris buffer at pH 8. An eight-channel pipettor was used to transfer 80 μL of material from the master plate into a half-area UV microplate, from which A320 was read from each sample to define a blank. A repeat-pipettor was used to add 20 μL of 2.5 mg/mL BMP-12 in 0.1% TFA to make a 0.5 mg/mL solution, which was then agitated at 14000 rpm. The UV absorption (A320) was read and the blank absorption subtracted to determine solubility. The procedure was repeated with a wider range of 2-methyl-2,4-pentanediol (MPD) concentrations and a finer set of salt concentrations (Table 4).

B1: BMP-12: Bone Morphogenic Protein, member of the TGF-β superfamily; tested in solution and immobilized on Sepharose beads as affinity ligand (protein)
chain: TALAGTRTAQGSGGGAGRGHGRRGRSRCSRKPLHVDFKELGWDDWIIAPLDYEAYHCEGLCDFPLRSHLEPTNHAIIQTLLNSMAPDAAPASCCVPARLSPISILYIDAANNVVYKQYEDMVVEACGCR
- A320 minus blank (turbidity) (NaCl 0 M, 1-propanol 0%): 1.724
- A320 minus blank (turbidity) (NaCl 0 M, 1-propanol 2.5%): 1.848
- A320 minus blank (turbidity) (NaCl 0 M, 1-propanol 5%): 2.134
- A320 minus blank (turbidity) (NaCl 0 M, 1-propanol 10%): 2.000
- A320 minus blank (turbidity) (NaCl 0 M, 1-propanol 15%): 3.172
- A320 minus blank (turbidity) (NaCl 0 M, 1-propanol 25%): 1.419
- A320 minus blank (turbidity) (NaCl 0 M, 2-methyl-2,4-pentanediol 2.5%): 1.936
- A320 minus blank (turbidity) (NaCl 0 M, 2-methyl-2,4-pentanediol 5%): 2.122
- A320 minus blank (turbidity) (NaCl 0 M, 2-methyl-2,4-pentanediol 10%): 2.148
- A320 minus blank (turbidity) (NaCl 0 M, 2-methyl-2,4-pentanediol 15%): 2.035
- A320 minus blank (turbidity) (NaCl 0 M, 2-methyl-2,4-pentanediol 20%): 2.136
- A320 minus blank (turbidity) (NaCl 0 M, 2-methyl-2,4-pentanediol 25%): 2.631
- A320 minus blank (turbidity) (NaCl 0.00 M, 2-methyl-2,4-pentanediol 30%): 3.443
- A320 minus blank (turbidity) (NaCl 0.00 M, 2-methyl-2,4-pentanediol 35%): 3.006
- A320 minus blank (turbidity) (NaCl 0.00 M, 2-methyl-2,4-pentanediol 40%): 3.519
- A320 minus blank (turbidity) (NaCl 0.00 M, 2-methyl-2,4-pentanediol 45%): 3.308
- A320 minus blank (turbidity) (NaCl 0.05 M, 2-methyl-2,4-pentanediol 25%): 1.994
- A320 minus blank (turbidity) (NaCl 0.05 M, 2-methyl-2,4-pentanediol 30%): 0.979
- A320 minus blank (turbidity) (NaCl 0.05 M, 2-methyl-2,4-pentanediol 35%): 0.376
- A320 minus blank (turbidity) (NaCl 0.05 M, 2-methyl-2,4-pentanediol 40%): 0.330
- A320 minus blank (turbidity) (NaCl 0.05 M, 2-methyl-2,4-pentanediol 45%): 0.318
- A320 minus blank (turbidity) (NaCl 0.1 M, 1-propanol 0%): 1.745
- A320 minus blank (turbidity) (NaCl 0.1 M, 1-propanol 2.5%): 2.135
- A320 minus blank (turbidity) (NaCl 0.1 M, 1-propanol 5%): 2.212
- A320 minus blank (turbidity) (NaCl 0.1 M, 1-propanol 10%): 1.945
- A320 minus blank (turbidity) (NaCl 0.1 M, 1-propanol 15%): 3.199
- A320 minus blank (turbidity) (NaCl 0.1 M, 1-propanol 25%): 0.104
- A320 minus blank (turbidity) (NaCl 0.1 M, 2-methyl-2,4-pentanediol 2.5%): 1.900
- A320 minus blank (turbidity) (NaCl 0.1 M, 2-methyl-2,4-pentanediol 5%): 2.338
- A320 minus blank (turbidity) (NaCl 0.1 M, 2-methyl-2,4-pentanediol 10%): 2.341
- A320 minus blank (turbidity) (NaCl 0.1 M, 2-methyl-2,4-pentanediol 15%): 2.287
- A320 minus blank (turbidity) (NaCl 0.1 M, 2-methyl-2,4-pentanediol 20%): 2.573
- A320 minus blank (turbidity) (NaCl 0.1 M, 2-methyl-2,4-pentanediol 25%): 0.715 and 0.626
- A320 minus blank (turbidity) (NaCl 0.10 M, 2-methyl-2,4-pentanediol 30%): 0.206
- A320 minus blank (turbidity) (NaCl 0.10 M, 2-methyl-2,4-pentanediol 35%): 0.150
- A320 minus blank (turbidity) (NaCl 0.10 M, 2-methyl-2,4-pentanediol 40%): 0.083
- A320 minus blank (turbidity) (NaCl 0.10 M, 2-methyl-2,4-pentanediol 45%): 0.087
- A320 minus blank (turbidity) (NaCl 0.25 M, 1-propanol 0%): 1.804
- A320 minus blank (turbidity) (NaCl 0.25 M, 1-propanol 2.5%): 2.397
- A320 minus blank (turbidity) (NaCl 0.25 M, 1-propanol 5%): 2.300
- A320 minus blank (turbidity) (NaCl 0.25 M, 1-propanol 10%): 2.105
- A320 minus blank (turbidity) (NaCl 0.25 M, 1-propanol 15%): 1.392
- A320 minus blank (turbidity) (NaCl 0.25 M, 1-propanol 25%): 0.022
- A320 minus blank (turbidity) (NaCl 0.25 M, 2-methyl-2,4-pentanediol 2.5%): 2.061
- A320 minus blank (turbidity) (NaCl 0.25 M, 2-methyl-2,4-pentanediol 5%): 2.399
- A320 minus blank (turbidity) (NaCl 0.25 M, 2-methyl-2,4-pentanediol 10%): 2.434
- A320 minus blank (turbidity) (NaCl 0.25 M, 2-methyl-2,4-pentanediol 15%): 2.433
- A320 minus blank (turbidity) (NaCl 0.25 M, 2-methyl-2,4-pentanediol 20%): 1.006
- A320 minus blank (turbidity) (NaCl 0.25 M, 2-methyl-2,4-pentanediol 30%): −0.015
- A320 minus blank (turbidity) (NaCl 0.25 M, 2-methyl-2,4-pentanediol 35%): −0.065
- A320 minus blank (turbidity) (NaCl 0.25 M, 2-methyl-2,4-pentanediol 40%): 0.015
- A320 minus blank (turbidity) (NaCl 0.25 M, 2-methyl-2,4-pentanediol 45%): −0.012
- A320 minus blank (turbidity) (NaCl 0.5 M, 1-propanol 0%): 1.953
- A320 minus blank (turbidity) (NaCl 0.5 M, 1-propanol 2.5%): 2.170
- A320 minus blank (turbidity) (NaCl 0.5 M, 1-propanol 5%): 1.629
- A320 minus blank (turbidity) (NaCl 0.5 M, 1-propanol 10%): 1.313
- A320 minus blank (turbidity) (NaCl 0.5 M, 1-propanol 15%): 0.305
- A320 minus blank (turbidity) (NaCl 0.5 M, 1-propanol 25%): −0.001
- A320 minus blank (turbidity) (NaCl 0.5 M, 2-methyl-2,4-pentanediol 2.5%): 2.045
- A320 minus blank (turbidity) (NaCl 0.5 M, 2-methyl-2,4-pentanediol 5%): 2.414
- A320 minus blank (turbidity) (NaCl 0.5 M, 2-methyl-2,4-pentanediol 10%): 2.258
- A320 minus blank (turbidity) (NaCl 0.5 M, 2-methyl-2,4-pentanediol 15%): 1.420
- A320 minus blank (turbidity) (NaCl 0.5 M, 2-methyl-2,4-pentanediol 20%): 0.165
- A320 minus blank (turbidity) (NaCl 0.5 M, 2-methyl-2,4-pentanediol 25%): 0.020 and 0.038
- A320 minus blank (turbidity) (NaCl 0.50 M, 2-methyl-2,4-pentanediol 30%): −0.091
- A320 minus blank (turbidity) (NaCl 0.50 M, 2-methyl-2,4-pentanediol 35%): 0.026
- A320 minus blank (turbidity) (NaCl 0.50 M, 2-methyl-2,4-pentanediol 40%): 0.024
- A320 minus blank (turbidity) (NaCl 0.50 M, 2-methyl-2,4-pentanediol 45%): −0.008
- A320 minus blank (turbidity) (NaCl 0.75 M, 1-propanol 0%): 1.911
- A320 minus blank (turbidity) (NaCl 0.75 M, 1-propanol 2.5%): 2.023
- A320 minus blank (turbidity) (NaCl 0.75 M, 1-propanol 5%): 1.541
- A320 minus blank (turbidity) (NaCl 0.75 M, 1-propanol 10%): 1.032
- A320 minus blank (turbidity) (NaCl 0.75 M, 1-propanol 15%): 0.094
- A320 minus blank (turbidity) (NaCl 0.75 M, 1-propanol 25%): −0.003
- A320 minus blank (turbidity) (NaCl 0.75 M, 2-methyl-2,4-pentanediol 2.5%): 1.985
- A320 minus blank (turbidity) (NaCl 0.75 M, 2-methyl-2,4-pentanediol 5%): 2.076
- A320 minus blank (turbidity) (NaCl 0.75 M, 2-methyl-2,4-pentanediol 10%): 2.211
- A320 minus blank (turbidity) (NaCl 0.75 M, 2-methyl-2,4-pentanediol 15%): 0.818
- A320 minus blank (turbidity) (NaCl 0.75 M, 2-methyl-2,4-pentanediol 20%): 0.099
- A320 minus blank (turbidity) (NaCl 0.75 M, 2-methyl-2,4-pentanediol 25%): 0.001
- A320 minus blank (turbidity) (NaCl 1 M, 1-propanol 0%): 1.988
- A320 minus blank (turbidity) (NaCl 1 M, 1-propanol 2.5%): 1.601
- A320 minus blank (turbidity) (NaCl 1 M, 1-propanol 5%): 1.817
- A320 minus blank (turbidity) (NaCl 1 M, 1-propanol 10%): 1.000
- A320 minus blank (turbidity) (NaCl 1 M, 1-propanol 15%): 0.040
- A320 minus blank (turbidity) (NaCl 1 M, 1-propanol 25%): −0.010
- A320 minus blank (turbidity) (NaCl 1 M, 2-methyl-2,4-pentanediol 2.5%): 2.133
- A320 minus blank (turbidity) (NaCl 1 M, 2-methyl-2,4-pentanediol 5%): 1.903
- A320 minus blank (turbidity) (NaCl 1 M, 2-methyl-2,4-pentanediol 10%): 2.110
- A320 minus blank (turbidity) (NaCl 1 M, 2-methyl-2,4-pentanediol 15%): 0.400
- A320 minus blank (turbidity) (NaCl 1 M, 2-methyl-2,4-pentanediol 20%): 0.089
- A320 minus blank (turbidity) (NaCl 1 M, 2-methyl-2,4-pentanediol 25%): −0.015
- A320 minus blank (turbidity) (NaCl 1.25 M, 1-propanol 0%): 1.702
- A320 minus blank (turbidity) (NaCl 1.25 M, 1-propanol 2.5%): 1.376
- A320 minus blank (turbidity) (NaCl 1.25 M, 1-propanol 5%): 1.643
- A320 minus blank (turbidity) (NaCl 1.25 M, 1-propanol 10%): 1.018
- A320 minus blank (turbidity) (NaCl 1.25 M, 1-propanol 15%): 0.033
- A320 minus blank (turbidity) (NaCl 1.25 M, 1-propanol 25%): 0.022
- A320 minus blank (turbidity) (NaCl 1.25 M, 2-methyl-2,4-pentanediol 2.5%): 1.819
- A320 minus blank (turbidity) (NaCl 1.25 M, 2-methyl-2,4-pentanediol 5%): 1.643
- A320 minus blank (turbidity) (NaCl 1.25 M, 2-methyl-2,4-pentanediol 10%): 1.688
- A320 minus blank (turbidity) (NaCl 1.25 M, 2-methyl-2,4-pentanediol 15%): 0.257
- A320 minus blank (turbidity) (NaCl 1.25 M, 2-methyl-2,4-pentanediol 20%): 0.040
- A320 minus blank (turbidity) (NaCl 1.25 M, 2-methyl-2,4-pentanediol 25%): −0.011
- A320 minus blank (turbidity) (NaCl 1.5 M, 1-propanol 0%): 1.981
- A320 minus blank (turbidity) (NaCl 1.5 M, 1-propanol 2.5%): 1.358
- A320 minus blank (turbidity) (NaCl 1.5 M, 1-propanol 5%): 1.598
- A320 minus blank (turbidity) (NaCl 1.5 M, 1-propanol 10%): 0.973
- A320 minus blank (turbidity) (NaCl 1.5 M, 1-propanol 15%): 0.036
- A320 minus blank (turbidity) (NaCl 1.5 M, 1-propanol 25%): 0.478
- A320 minus blank (turbidity) (NaCl 1.5 M, 2-methyl-2,4-pentanediol 2.5%): 1.767
- A320 minus blank (turbidity) (NaCl 1.5 M, 2-methyl-2,4-pentanediol 5%): 1.521
- A320 minus blank (turbidity) (NaCl 1.5 M, 2-methyl-2,4-pentanediol 10%): 1.798
- A320 minus blank (turbidity) (NaCl 1.5 M, 2-methyl-2,4-pentanediol 15%): 0.227
- A320 minus blank (turbidity) (NaCl 1.5 M, 2-methyl-2,4-pentanediol 20%): 0.045
- A320 minus blank (turbidity) (NaCl 1.5 M, 2-methyl-2,4-pentanediol 25%): 0.003

— patent US7754689B2, “Finger-1 peptide analogs of the TGF-β superfamily” (Wyeth LLC, priority 2006, dated 2010)
